US12583895B2, “Polypeptides for restoring endothelial function and methods of use thereof” (Vanderbilt University, priority 2019, dated 2026)
“Also recorded” adds a separate entry of the source. Non-standard residues stand in square brackets, D forms with d. No end group written: not given here. pS = N[C@@H](COP(=O)(O)O)C(=O)O

Columns and labels:
[1] = tested on: rat aorta; test: Carbachol-induced relaxation of anisomycin-treated rat aorta; format: cell-based; settings: NiPp 500 μM 30 min pretreatment, then anisomycin 200 μM 1 h
Description: RA rings were suspended in a muscle bath and incubated with either buffer alone (Ctrl), Aniso (200 μM) for 1 h, or NiPp (500 μM) for 30 min followed by Aniso (200 μM) for 1 h. […] Proteins were extracted […] immunoblotted to examine p38MAPK phosphorylation. Quantification of relative phosphorylation to total p38MAPK level is shown. n=10, *p<0.05 in one-way ANOVA with Tukey post-test. NiPp restores endothelial dysfunction and reduced p38 MAPK phosphorylation induced by anisomycin in RA.
RA rings were suspended in a muscle bath and incubated with either buffer alone (Ctrl), Aniso (200 μM) for 1 h, or NiPp (500 μM) for 30 min followed by Aniso (200 μM) for 1 h. […] The force generated was determined and was adjusted to the weight and length of the tissue. Representative tracings from 1 out of 6 different rats are shown. […] Proteins were extracted and phosphorylation of p38 MAPK was determined by Western blot analysis. […] Data are expressed as mean±SD. […]
This produced the maximal force tension relationship as previously described. […] Contractile responses were defined by stress, calculated using force generated by tissues as follows: stress (×10^5 N/m^2)=force (g)×0.0987/area, where area=wet weight (mg)/at maximal length (mm)]/1.055.
Relaxation was calculated as percent change in stress compared to the maximal PE-induced contraction (set as 100%). […]

[2] = biological target: T1, p38 MAPK δ isoform (Homo sapiens, UniProt O15264); test: SelectScreen kinase profiling; format: biochemical; settings: NiPp 100 μM
T1 sequence (O15264 1-365): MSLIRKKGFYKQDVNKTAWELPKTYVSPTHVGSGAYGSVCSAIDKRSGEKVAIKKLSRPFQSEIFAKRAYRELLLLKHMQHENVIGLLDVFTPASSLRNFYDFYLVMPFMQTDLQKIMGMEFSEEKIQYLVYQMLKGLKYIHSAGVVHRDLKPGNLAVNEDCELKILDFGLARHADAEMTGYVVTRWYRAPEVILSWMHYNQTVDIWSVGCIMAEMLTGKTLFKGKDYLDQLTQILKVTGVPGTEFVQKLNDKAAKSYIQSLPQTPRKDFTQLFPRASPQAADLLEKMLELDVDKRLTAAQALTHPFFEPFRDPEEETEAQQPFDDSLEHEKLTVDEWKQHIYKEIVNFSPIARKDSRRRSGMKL
Description: (§1) Kinase profiling. NiPp was dissolved in DMSO, screened at a single concentration of 100 μM using in vitro kinase assays (SelectScreen Kinase Profiling Service; ThermoFisher Scientific, Madison WI) including the Z'LYTE and Adapta kinase activity assays and the LanthaScreen Eu Kinase Binding Assay). Candidate interactions were predicted using STRING Version 11 (www.string-db-org) with the human database at confidence=0.7.
(§2) Since NiPp treatment was associated with decreased phosphorylation of p38 MAPK in RA, a mechanism of NiPp function can kinase inhibition. Therefore, a kinase profiling assay was performed to determine the effect of NiPp on the activity of a panel of kinases in vitro. The top two kinases inhibited by NiPp were MSK1 and p38 MAPKα. Inhibition to the p38 MAPKα isoform appeared to be specific as inhibition by NiPp to the other isoforms (β, δ, and γ) in the kinaseprofiling screen were only at 5, 3, and 3% respectively. Despite high sequence homology, the isoforms have difference in tissue expression, upstream kinase activators and downstream substrates. The p38 MAPKα isoform, initially identified as a protein that underwent phosphorylation in response to endotoxin treatment and hyperosmolarity shock, plays a role in endothelial dysfunction in that inhibition of this isoform leads to improved endothelial function in animal models of cardiovascular diseases including cardiac hypertrophy, balloon injury, salt/fat induced hypertension and in hypercholesterolemic patients. The α-isoform is also a key regulator of pro-inflammatory cytokine production and itself can be activated by IL1-β. MSK1, a downstream kinase of the p38 MAPK activation (FIG. 19), has complex cell-dependent roles in inflammatory responses. In endothelial cells, MSK1 promotes CREB activation in response to TNFα.

[3] = biological target: p38 MAPK β isoform (Homo sapiens, UniProt Q15759); test: SelectScreen kinase profiling; format: biochemical; settings: NiPp 100 μM
Description: as §1, §2

[4] = biological target: T2, p38 MAPK γ isoform (Homo sapiens, UniProt P53778); test: SelectScreen kinase profiling; format: biochemical; settings: NiPp 100 μM
T2 sequence (P53778 1-367): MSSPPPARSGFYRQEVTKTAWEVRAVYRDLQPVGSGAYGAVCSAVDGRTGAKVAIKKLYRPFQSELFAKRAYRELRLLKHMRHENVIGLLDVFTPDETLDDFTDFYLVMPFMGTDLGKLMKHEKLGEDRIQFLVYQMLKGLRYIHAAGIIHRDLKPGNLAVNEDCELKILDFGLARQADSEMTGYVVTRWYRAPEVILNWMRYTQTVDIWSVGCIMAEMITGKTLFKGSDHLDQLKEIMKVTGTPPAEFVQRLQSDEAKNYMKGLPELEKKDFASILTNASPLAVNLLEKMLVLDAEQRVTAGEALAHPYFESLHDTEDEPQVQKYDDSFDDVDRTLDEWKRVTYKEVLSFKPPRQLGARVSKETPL
Description: as §1, §2

Sequence of p38 MAPK β isoform (Q15759 whole entry, canonical isoform): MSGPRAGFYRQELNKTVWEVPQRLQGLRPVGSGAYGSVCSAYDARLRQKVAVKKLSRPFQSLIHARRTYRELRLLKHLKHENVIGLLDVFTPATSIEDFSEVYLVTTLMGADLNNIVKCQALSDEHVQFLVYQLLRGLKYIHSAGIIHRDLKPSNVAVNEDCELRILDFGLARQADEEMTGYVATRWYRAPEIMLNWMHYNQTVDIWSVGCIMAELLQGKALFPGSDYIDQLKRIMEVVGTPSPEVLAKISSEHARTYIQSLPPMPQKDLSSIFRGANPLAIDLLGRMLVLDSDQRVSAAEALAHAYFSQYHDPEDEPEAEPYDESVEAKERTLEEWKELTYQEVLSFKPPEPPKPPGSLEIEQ

## YARAAARQARASPAARRA(pS)AILPG (YARAAARQARASPAARRA[pS]AILPG) [NiPp, Cell-permeant phosphopeptide mimetic of Niban: transduction domain … conjugated to the region surrounding serine 602 of Niban]
[1]
  endothelial-dependent relaxation (5×10^−7 M CCH) in anisomycin-treated rat aorta: improved; also recorded: prevented; also recorded: restores
[2]
  % inhibition of p38 MAPK δ isoform: 3%
[3]
  % inhibition of p38 MAPK β isoform: 5%
[4]
  % inhibition of p38 MAPK γ isoform: 3%
